Patent publication US20240043507A1 (RQ BIOTECHNOLOGY, published 2024)

Key:
Assay in all cases: cell-based or functional assay
[1] = biological target: spike protein of SARS-CoV-2 strain Victoria (SARS-CoV-2/human/AUS/VIC01/2020) (SARS-CoV-2, UniProt P0DTC2 14-1273)
[2] = biological target: spike protein of SARS-CoV-2 strain B.1.351 (SARS-CoV-2, UniProt P0DTC2 14-1273)
[3] = biological target: spike protein of SARS-CoV-2 strain B.1.1.7 (SARS-CoV-2, UniProt P0DTC2 14-1273)
[4] = biological target: spike protein of SARS-CoV-2 strain P.1 (SARS-CoV-2, UniProt P0DTC2 14-1273)
[5] = biological target: spike protein of SARS-CoV-2 strain B.1.351 (SARS-CoV-2, UniProt P0DTC2 14-1273); remark: listed apart in the source
[6] = biological target: spike protein of SARS-CoV-2 strain Victoria (SARS-CoV-2/human/AUS/VIC01/2020) (SARS-CoV-2, UniProt P0DTC2 14-1273); remark: listed apart in the source

Binder | IC50 (FRNT, live virus neutralisation) [1] | IC50 (FRNT, live virus neutralisation) [2] | also measured
antibody 150 (antibody, V domains shown) VH: QVQLVESGGGLIQPGGSLRLSCAASGVTVSSNYMSWVRQAPGKGLEWVSIIYSGGTTYYADSVKGRFTISRDSSMNTLYLQMNSLRAEDTAVYYCARDLMVYGIDVWGQGTTVTVSS VL: EIVMTQSPSSLSASVGDRVTITCRASQGISSYLAWYQQKPGKAPKLLIYAASTLQSGVPSRFSGSGSGTDFTLTISSLQPEDFATYYCQQLDSYPPGYTFGQGTKVDIK | 0.012 µg/mL | 0.35 µg/mL | B.1.351/Victoria ratio (IC50) [2]: 30
antibody 170 (antibody, V domains shown) VH: QVQLVESGAEVKKPGESLKISCKGSGYSFTSYWIVWVRQMPGKGLEWMGIIYPGDSDTKYSPSFQGQVSISADKPISTAYLQWSRLKASDTAMYYCARLGNWLVDYWGQGTLVTVSS VL: DIVMTQSPLSLSVTPGQPASISCKSSQSLLHSDGKTYLYWYLQKPGQPPQLLMYEVSNRFSGVPDRFSGSGSGTDFTLKISRVESEDVGVYYCMQSIQLPRGITFGQGTRLEIK | 0.025 µg/mL | > 10 µg/mL | –
antibody 40 (antibody, V domains shown) VH: QVQLVESGGGLVQPGGSLRLSCAVSGFTVSRNYMSWVRQAPGKGLEWVSLIYSGGSTFYADSVKGRFTISRDNSKNTLYLQMNSLRAEDTAVYYCARDLFHRSGYHDYWGQGTLVTVSS VL: not shown | 0.026 µg/mL | 0.738 µg/mL | –
antibody 40 (antibody, V domains shown, also called mAb 40) VH: QVQLVESGGGLVQPGGSLRLSCAVSGFTVSRNYMSWVRQAPGKGLEWVSLIYSGGSTFYADSVKGRFTISRDNSKNTLYLQMNSLRAEDTAVYYCARDLFHRSGYHDYWGQGTLVTVSS VL: not shown | – | – | IC50 (FRNT neutralisation) [3]: 0.035 µg/mL; IC50 (FRNT neutralisation) [4]: 0.153 µg/mL; IC50 (FRNT neutralisation) [5]: 0.738 µg/mL; IC50 (FRNT neutralisation) [6]: 0.026 µg/mL
antibody 316 (antibody, V domains shown) VH: not shown VL: QAVLTQPPSASGSPGQSVTISCTGTSSDVGGYNYVSWYQQHPGKAPKLMIYEVSKRPSGVPDRFSGSKSGNTASLTVSGLQAEDEADYYCSSYAGSNHWVFGGGTKLTVL | 0.018 µg/mL | > 10 µg/mL | –
antibody 398 (antibody, V domains shown) VH: QVQLVESGGGLVQPGGSLRLSCAASGFTVSSNYMTWVRQAPGKGLEWVSVIYSGGSTYYADSVKGRFTISRDNSKNTLYLQMNSLRADDTAVYYCARDSTADYDFWSGYYVGAFHIWGQGTMVTVSS VL: QTVLTQPASVSGSPGQSITISCTGTSSDVGGYNYVSWYQQHPGKAPKLMIYEVTKRPSGVPDRFSGSKSGNTASLTVSGLQAEDEADYYCSSYAGSNNWVFGGGTKLTVL | 0.091 µg/mL | > 10 µg/mL | –
antibody 132 (antibody, V domains shown) VH: QVQLQQWGAGLLKPSETLSLTCAVYGGSFSGYYWSWIRQPPGKGLEWIGEINHSGSTNYNPSLKSRVTISVDTSKNQFSLKLSSVTAADTAVYYCARTDYYDSIDWGQGTLVTVSS VL: QSVLTQEPSLTVSPGGTVTLTCGSSTGAVTSGHYPYWFQQKPGQVPRTLIYDTRNKHSWTPARFSGSLLGGKAALTLSGAQPEDEAEYYCLLSSSGARVFGGGTKLTVL | 0.048 µg/mL | > 10 µg/mL | –
antibody 88 (antibody, V domains shown) VH: QLQLQESGPGLVKPSQTLSLTCTVSGGSISSGSYNWTWIRQPAGKGLEWIGRIYNSGSTNYNPSLKSRVTISVDTSKNQLSLKVRSVTAADTAVYYCARHCSGGTCYPKYYYGMDVWGQGTTVTVSS VL: QSALTQPPSVSEAPRQRVTISCSGSSSNIGNNAVNWYQQFPGKAPKLLIYYDDLLPSGVSDRFSGSKSGTSASLAISGVQSEDEADYYCAAWDDSLNVVVFGGGTKLTVL | 0.033 µg/mL | > 10 µg/mL | –
antibody 278 (antibody, V domains shown) VH: QVQLVQSGAEVKKPGASVKVSCKASGYIFIRYGISWVRQAPGQGLEWMGWISANNGYTNYAQKLQGRVTMTTDTSTSTAYMELRSLRSDDTAVYYCARDGGILTGYLDYFDHWGQGTLVTVSS VL: DIQMTQSPSSLSASVGDRLTITCRASQSIASYLNWYQQKPGKAPKLLIYAASSLQSGVPSRFSGSGSGTDFTLTISSLQPEDFATYHCQQSYSTLGITFGPGTKVDIK | 0.014 µg/mL | 0.16 µg/mL | –
antibody 253H165L (antibody, V domains shown) VH: not shown VL: DIVMTQSPGTLSLSPGERATLSCRASQSVRSSYLAWYQQKPGQAPRLLIYGASRRGTGIPDRFSGSGSGTDFTLTISRLEPEDFAVYYCQQYGSSPWTFGQGTKVEIK | 0.003 µg/mL | 0.013 µg/mL | –
antibody 165 (antibody, V domains shown) VH: QVQLVQSGPEVKKPGTSVKVSCKASGFTFTSSAVQWVRQARGQRLEWIGWIVVGSGNTNYAQKFQESVTITRDMSTSTAYMELSSLRSEDTAVYYCAAPHCIGGSCHDAFDIWGQGTMVTVSS VL: DIVMTQSPGTLSLSPGERATLSCRASQSVRSSYLAWYQQKPGQAPRLLIYGASRRGTGIPDRFSGSGSGTDFTLTISRLEPEDFAVYYCQQYGSSPWTFGQGTKVEIK | 0.034 µg/mL | 0.054 µg/mL | –
antibody 281 (antibody, V domains shown) VH: QVQLVESGGGLVQPGGSLRLSCAASGFPFSIYWMSWVRQAPGKGLEWVANIKQDGSEKYYVDSVKGRFTISRDNAKNSLYLHMNSLRGEDTAVYYCASRYYDFRPEAWFDYWGQGTLVTVSS VL: not shown | 0.005 µg/mL | > 10 µg/mL | –
antibody 175 (antibody, V domains shown) VH: EVQLVESGGGLIQPGGSLRLSCAASGLTVSRNYMSWVRQAPGKGLEWVSLIYSGGSTYYADSVKGRFTISRDNSKNTLYLQMNSLRAEDTAVYYCARDLRGEVWGQGTMVTVSS VL: not shown | 0.026 µg/mL | > 10 µg/mL | –
antibody 158 (antibody, V domains shown) VH: EVQLLESGGDLIQPGGSLRLSCAASGVTVSSNYMSWVRQAPGKGLEWVSIIYPGGSTFYADSVKGRFTISRDNSKNTLYLQMHSLRAEDTAVYYCARDLGSGDMDVWGKGTTVTVSS VL: DIVMTQSPSFLSASVGDRVTITCRASQGISSYLAWYQQKPGKAPKLLIQAASTLQSGVPSRFSGSGSGTEFTLTISSLQPEDFATYYCQQLNSYRYTFGQGTKVEIK | 0.031 µg/mL | > 10 µg/mL | –
antibody 269 (antibody, V domains shown) VH: QVQLVESGGGLIQPGGSLRLSCAASGLTVNRNYMSWIRQAPGKGLEWVSVIYSGGSTFYADSVKGRFTISRDNSKNTLSLQMNSLRAEDTAIYYCARDFYEGSFDIWGQGTMVTVSS VL: AIQLTQSPSFLSASIGDRVTITCRASQGISSYLAWYQQKPGKAPKLLIYAASTLQSGVPSRFSGSGSGTEFTLTISSLQPEDFASYYCQQLNSYPAPVFGPGTKVDIK | 0.03 µg/mL | > 10 µg/mL | –
antibody 58 (antibody, V domains shown) VH: QVQLVESGGGLVQPGRSLRLSCAASGFTFDDYAMHWVRQPPGKGLEWVSGVSWNSGTIGYADSVKGRFIISRDNAKNSLYLQMNSLKAEDTALYYCAREVGGTFGVLISREGGLDYWGQGTLVTVSS VL: SYELTQPPSVSVAPGQTARITCGGNTIGSKSVHWYQQRPGQAPVLVVYDDSDRPSGIPERFSGSNSGNTATLTISRVEAGDEADYYCQVWDSSSDRVVFGGGTKLTVL | 0.041 µg/mL | 0.136 µg/mL | –
antibody 384 (antibody, V domains shown) VH: EVQLVESGGGLVKPGESLRLSCAASGFTFSDYYMTWIRQAPGKGLEWVSYIRSSGHTIYYADSVKGRFTISRDNAKNSLYLQMNSLRVEDTAVYYCARGGVLRFLEWPLNAFDIWGQGTMVTVSS VL: DIQLTQSPSSLSASVGDRVTITCRASQGISNYLAWYQQKPGKVPKLLIYAASTLQSGVPSRFSGSGSGTDFTLTISSLQPEDVATYYCQKYNNALGTFGQGTKVEIK [antibody 384, listing 1 of 2 here] | – | > 10 µg/mL | –
antibody 384 (antibody, V domains shown) VH: EVQLVESGGGLVKPGESLRLSCAASGFTFSDYYMTWIRQAPGKGLEWVSYIRSSGHTIYYADSVKGRFTISRDNAKNSLYLQMNSLRVEDTAVYYCARGGVLRFLEWPLNAFDIWGQGTMVTVSS VL: DIQLTQSPSSLSASVGDRVTITCRASQGISNYLAWYQQKPGKVPKLLIYAASTLQSGVPSRFSGSGSGTDFTLTISSLQPEDVATYYCQKYNNALGTFGQGTKVEIK [antibody 384, listing 2 of 2 here] | – | – | IC50 (FRNT neutralisation) [3]: 0.005 µg/mL; IC50 (FRNT neutralisation) [4]: > 10 µg/mL; IC50 (FRNT neutralisation) [5]: > 10 µg/mL
antibody 222 (antibody, V domains shown) VH: EVQLVESGGGLIQPGGSLRLSCAASGLTVSSNYMSWVRQAPGKGLEWVSVIYSGGSTFYADSVKGRFTISRDNSKNTLYLQMNSLGAEDTAVYYCARGEGSPGNWFDPWGQGTLVTVSS VL: DVVMTQSPGTLSLSPGERATLSCRASQSVPSSYLAWYQQKPGQAPRLLIYGASTRATGIPDRFSGSGSGTDFTLTISRLEPEDFAVYYCQHYDTSPRFGGGTKVDIK | 0.019 µg/mL | 0.017 µg/mL | –
antibody 318 (antibody, V domains shown) VH: QVQLVQSGPEVKKPGTSVKVSCKASGFTLTSSAMQWVRQARGQRLEWIGWIVVGSGNTNYAQKFQERVTITRDMSTSTAYMELSSLRSEDTAVYYCAAGRGYNSDFDYWGQGTLVTVSS VL: AIRMTQSPGTLSLSPGERATLSCRASQSVSSSYLAWYQQRPGQAPRLLIYGTSSRATGIPDRFSGSGSGTDFTLTISRLEPEDFAVYYCQQYGYSVYTFGQGTKVDIK | 0.029 µg/mL | 0.019 µg/mL | –
